For assay [1], the target named is Recombinant human Flt-1/Fc chimera (R&D Systems) (human) (UniProt P17948). In words: fluorescence plate assay; control peptide at 0 µM on immobilized Flt-1/Fc.
For assay [2] the target is unchanged. In words: fluorescence plate assay; control peptide at 1 µM on immobilized Flt-1/Fc.
The target is the same in assay [3]. In words: fluorescence plate assay; control peptide at 100 µM on immobilized Flt-1/Fc.
Assay [4] has the same target. In words: fluorescence plate assay; control peptide at 0.1 µM on immobilized Flt-1/Fc.
Assay [5] has the same target. In words: fluorescence plate assay; control peptide at 10 µM on immobilized Flt-1/Fc.

Chain of Recombinant human Flt-1/Fc chimera (R&D Systems) (human) (P17948 other isoform, or with tags, fused parts or gaps mutant limits assumed): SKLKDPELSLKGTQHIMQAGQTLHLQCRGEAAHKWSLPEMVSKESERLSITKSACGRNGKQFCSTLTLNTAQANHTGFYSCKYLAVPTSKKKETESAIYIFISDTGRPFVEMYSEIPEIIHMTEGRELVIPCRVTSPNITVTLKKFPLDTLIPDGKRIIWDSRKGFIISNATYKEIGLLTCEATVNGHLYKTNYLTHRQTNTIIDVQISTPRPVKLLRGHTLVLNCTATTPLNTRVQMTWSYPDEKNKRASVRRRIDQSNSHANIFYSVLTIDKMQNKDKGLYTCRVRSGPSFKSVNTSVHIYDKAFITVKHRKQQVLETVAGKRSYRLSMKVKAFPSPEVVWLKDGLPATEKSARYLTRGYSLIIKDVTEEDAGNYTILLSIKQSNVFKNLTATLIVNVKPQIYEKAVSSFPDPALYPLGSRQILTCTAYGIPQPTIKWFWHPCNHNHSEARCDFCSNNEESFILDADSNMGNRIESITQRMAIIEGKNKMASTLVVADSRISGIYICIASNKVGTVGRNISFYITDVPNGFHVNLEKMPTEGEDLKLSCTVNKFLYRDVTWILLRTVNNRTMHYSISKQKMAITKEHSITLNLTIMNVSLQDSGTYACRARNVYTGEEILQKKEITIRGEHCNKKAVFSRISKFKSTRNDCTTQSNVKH

For the substance Control peptide (Table 5), the Fluorescence came out at 0 in assay [1]; 20 in assay [2]; 1100 in assay [3]; 7 in assay [4]; 493 in assay [5].

Values taken from US20020058619A1.
